Test [1] deals with T1, IL-2 receptor βγ complex (human, UniProt P14784 27-551; P31785 23-369).
T1 sequence (looked up) 1: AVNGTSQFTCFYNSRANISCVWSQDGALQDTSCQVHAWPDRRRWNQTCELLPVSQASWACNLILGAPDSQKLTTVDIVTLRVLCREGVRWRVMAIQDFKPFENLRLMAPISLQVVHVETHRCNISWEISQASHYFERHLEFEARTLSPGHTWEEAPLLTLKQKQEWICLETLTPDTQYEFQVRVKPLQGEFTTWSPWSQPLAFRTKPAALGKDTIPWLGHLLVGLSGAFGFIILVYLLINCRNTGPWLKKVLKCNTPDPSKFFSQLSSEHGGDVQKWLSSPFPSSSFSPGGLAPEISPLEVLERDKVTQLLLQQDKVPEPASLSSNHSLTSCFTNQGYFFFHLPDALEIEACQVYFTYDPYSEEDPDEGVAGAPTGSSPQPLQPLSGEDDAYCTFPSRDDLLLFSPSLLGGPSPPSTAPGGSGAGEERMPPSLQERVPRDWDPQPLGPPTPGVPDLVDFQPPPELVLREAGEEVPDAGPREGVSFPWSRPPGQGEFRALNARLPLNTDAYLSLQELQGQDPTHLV
T1 sequence (looked up) 2: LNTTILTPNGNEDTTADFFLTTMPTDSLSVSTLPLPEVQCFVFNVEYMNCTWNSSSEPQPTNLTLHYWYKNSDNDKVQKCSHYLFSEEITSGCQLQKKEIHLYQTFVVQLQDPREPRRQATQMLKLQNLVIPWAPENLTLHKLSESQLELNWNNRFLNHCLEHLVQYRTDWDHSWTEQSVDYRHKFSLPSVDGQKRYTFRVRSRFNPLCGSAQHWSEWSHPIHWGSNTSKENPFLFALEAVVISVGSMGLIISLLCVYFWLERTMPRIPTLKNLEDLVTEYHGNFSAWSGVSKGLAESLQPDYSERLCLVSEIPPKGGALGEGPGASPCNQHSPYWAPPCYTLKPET
The test can be described thus: cell-based or functional assay.

For test [2], the target named is T1, IL-2 receptor βγ complex. Briefly: cell-based or functional assay. The source holds these as a separate data set.

Bridges are numbered along the chain shown (N, C = ends). Primed or numbered codes have the meaning given here. [ ]: non-standard residue; d: D form. Ygp(4) = Tyr with amino-capped PEG8 (O-(8x polyethylene glycol-amino)-tyrosine); Yn3(4) = Tyr with azide-capped PEG9 (O-(9x polyethylene glycol-azido)-tyrosine); Ygp = O-(8x polyethylene glycol-amino)-tyrosine (Tyr, amino-capped PEG8); Yn3 = O-(9x polyethylene glycol-azido)-tyrosine (Tyr, azide-capped PEG9); hSer = N[C@@H](CCO)C(=O)O; Nle = CCCC[C@H](N)C(=O)O

B1: CMP-302 (ligand)
chain: GPLGLAGAPTSSSTKKTQLQLEHLLLDLQEILNGINNYKNPKLTR[Nle]L[hSer][Yn3(4)]KF[Ygp(4)][Nle]PKKATELKHLQCLEEELKPLEEVL[hSer]LAQSKNFHLRPRDLISNINVIVLELKGSETTF[hSer]CEYADETATIVEFLNRWITFSQSIISTLT
modifications: lactam N-30; ends not checked
Regarding B1, the “Average EC50, pSTAT5 Assay (T cells)” value with IL-2 receptor βγ complex [1] was found to be 63.4 nM.

B2: CMP-303 (ligand)
chain: PLGLAGAPTSSSTKKTQLQLEHLLLDLQEILNGINNYKNPKLTR[Nle]L[hSer][Yn3(4)]KF[Ygp(4)][Nle]PKKATELKHLQCLEEELKPLEEVL[hSer]LAQSKNFHLRPRDLISNINVIVLELKGSETTF[hSer]CEYADETATIVEFLNRWITFSQSIISTLT
modifications: bridge N-29; not fully specified (N-terminus, bridges); ends not checked
Take B2: the “Average EC50, pSTAT5 Assay (T cells)” value with IL-2 receptor βγ complex [1] came out at 97.9 nM.

B3: CMP-304 (ligand)
chain: PLGLAGAPTSSSTKKTQLQLEHLLLDLQEILNGINNYKNPKLTR[Nle]L[hSer][Yn3(4)]KF[Ygp(4)][Nle]PKKATELKHLQCLEEELKPLEEVL[hSer]LAQSKNFHLRPRDLISNINVIVLELKGSETTF[hSer]CEYADETATIVEFLNRWITFSQSIISTLT
modifications: bridge N-29; not fully specified (N-terminus, bridges); ends not checked
With B3, the “Average EC50, pSTAT5 Assay (T cells)” value with IL-2 receptor βγ complex [1] is 110 nM.

B4: CMP-168 (ligand)
chain: APTSSSTKKTQLQLEHLLLDLQEILNGINNYKNPKLTR[Nle]L[hSer][Yn3(4)]KF[Ygp(4)][Nle]PKKATELKHLQCLEEELKPLEEVL[hSer]LAQSKNFHLRPRDLISNINVIVLELKGSETTF[hSer]CEYADETATIVEFLNRWITFSQSIISTLT
modifications: bridge 9-23; not fully specified (bridges); ends not checked; also: sequence of the cleavable bridging peptide not given here
For the molecule B4, the “Average EC50, pSTAT5 Assay (T cells)” value in the test with IL-2 receptor βγ complex [1] came out at 144 nM. Besides, the “Average EC50, pSTAT5 Assay in NK cells” value in the test with IL-2 receptor βγ complex [2] turned out to be 53.9 nM.

B5: CMP-305 (ligand)
chain: APTSSSTKKTQLQLEHLLLDLQKILNGINNYKNPKLTR[Nle]L[hSer][Yn3]KF[Ygp][Nle]PKKATELKHLQCLEEELKPLEEVL[hSer]LAQSKNFHLRPRDLISNINVIVLELKGSETTF[hSer]CEYADETATIVEFLNRWITFSQSIISTLT
modifications: bridge 15-23; not fully specified (bridges); also: further groups not given here
B5: the “Average EC50, pSTAT5 Assay (T cells)” value in the test with IL-2 receptor βγ complex [1] was found to be 128 nM.

B6: CMP-305, MMP2 cleaved molecule (ligand)
chain: APTSSSTKKTQLQLEHLLLDLQKILNGINNYKNPKLTR[Nle]L[hSer][Yn3]KF[Ygp][Nle]PKKATELKHLQCLEEELKPLEEVL[hSer]LAQSKNFHLRPRDLISNINVIVLELKGSETTF[hSer]CEYADETATIVEFLNRWITFSQSIISTLT
modifications: also: m29 after MMP2 cleavage: Glu15-Lys23 cleavable peptide bridge cut, remnants on Glu15 and Lys23 not given here
In the case of B6, the “Average EC50, pSTAT5 Assay (T cells)” value with IL-2 receptor βγ complex [1] was determined as 3.26 nM.

B7: CMP-168, MMP2 cleaved molecule (ligand)
chain: APTSSSTKKTQLQLEHLLLDLQEILNGINNYKNPKLTR[Nle]L[hSer][Yn3(4)]KF[Ygp(4)][Nle]PKKATELKHLQCLEEELKPLEEVL[hSer]LAQSKNFHLRPRDLISNINVIVLELKGSETTF[hSer]CEYADETATIVEFLNRWITFSQSIISTLT
modifications: not fully specified; ends and bridges not checked; also: MMP2 cleaved, cleavage site and linker fragments on Lys9 and Glu23 side chains not given here
B7: the “Average EC50, pSTAT5 Assay (T cells)” value in the test with IL-2 receptor βγ complex [1] is 6.3 nM. Further, the “Average EC50, pSTAT5 Assay in NK cells” value with IL-2 receptor βγ complex [2] worked out at 0.981 nM.

The record behind these values is patent US20240376170A1 (BRIGHT PEAK THERAPEUTICS, published 2024).
